pKd: −log10 of the molar value.
Target: 5,6-TAMRA-labeled short BMAL1 TAD (residues 594-626), wild type (mouse)
Test: fluorescence polarisation

mouse CRY1 photolyase homology region (PHR, residues 1-491), sequence (P97784 1-491): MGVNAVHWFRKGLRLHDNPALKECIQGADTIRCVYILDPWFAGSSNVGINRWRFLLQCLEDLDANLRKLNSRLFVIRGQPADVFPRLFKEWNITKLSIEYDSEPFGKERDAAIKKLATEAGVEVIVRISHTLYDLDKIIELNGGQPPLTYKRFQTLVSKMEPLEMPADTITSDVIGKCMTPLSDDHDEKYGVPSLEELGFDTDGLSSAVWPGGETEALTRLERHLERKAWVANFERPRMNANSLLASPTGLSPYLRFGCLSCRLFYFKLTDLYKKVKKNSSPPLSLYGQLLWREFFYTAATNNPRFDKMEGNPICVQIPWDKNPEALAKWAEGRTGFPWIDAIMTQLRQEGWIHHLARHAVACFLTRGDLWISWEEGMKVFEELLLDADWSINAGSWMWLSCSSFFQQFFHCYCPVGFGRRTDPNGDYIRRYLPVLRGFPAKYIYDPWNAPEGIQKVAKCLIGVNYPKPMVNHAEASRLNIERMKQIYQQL

mouse CRY1 photolyase homology region (PHR, residues 1-491) (from UniProt P97784 1-491) (domain or fragment)
pKd: 6.05
